Assay results taken from US20200339648A1 (University of Washington, published 2020).

T1: human IL-2 receptor βγc heterodimer (hIL-2Rβγc), soluble (human, UniProt P14784 27-240; P31785 23-254, biotin on the C-terminal biotin acceptor peptide)
T1 construct: also called HsIL-2Rβγc; hIL-2Rβνc
T1 sequence 1: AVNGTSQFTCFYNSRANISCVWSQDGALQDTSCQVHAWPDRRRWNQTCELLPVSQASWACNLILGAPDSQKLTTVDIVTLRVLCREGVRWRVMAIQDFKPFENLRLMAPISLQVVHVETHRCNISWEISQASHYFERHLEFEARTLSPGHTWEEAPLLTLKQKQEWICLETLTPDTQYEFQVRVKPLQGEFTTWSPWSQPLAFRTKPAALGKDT
T1 sequence 2: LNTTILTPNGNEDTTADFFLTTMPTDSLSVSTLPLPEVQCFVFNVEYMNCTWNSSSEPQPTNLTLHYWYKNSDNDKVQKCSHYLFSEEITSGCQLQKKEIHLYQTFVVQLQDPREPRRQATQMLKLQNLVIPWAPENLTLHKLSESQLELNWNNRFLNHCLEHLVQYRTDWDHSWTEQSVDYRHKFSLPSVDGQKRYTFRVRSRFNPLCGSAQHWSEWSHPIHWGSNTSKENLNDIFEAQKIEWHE

T2: mouse IL-2 receptor βγc heterodimer (mIL-2Rβγc), soluble (mouse, UniProt P16297 27-240; P34902 23-263, biotin on the C-terminal biotin acceptor peptide)
T2 construct: extracellular domain; also called MmIL-2Rβγc; mIL-2Rβνc
T2 sequence 1: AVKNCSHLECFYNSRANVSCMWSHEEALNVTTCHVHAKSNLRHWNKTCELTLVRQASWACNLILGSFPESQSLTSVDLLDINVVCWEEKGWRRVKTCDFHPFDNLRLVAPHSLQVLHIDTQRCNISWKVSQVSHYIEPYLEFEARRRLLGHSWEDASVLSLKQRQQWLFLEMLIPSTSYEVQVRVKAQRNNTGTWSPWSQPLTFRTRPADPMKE
T2 sequence 2: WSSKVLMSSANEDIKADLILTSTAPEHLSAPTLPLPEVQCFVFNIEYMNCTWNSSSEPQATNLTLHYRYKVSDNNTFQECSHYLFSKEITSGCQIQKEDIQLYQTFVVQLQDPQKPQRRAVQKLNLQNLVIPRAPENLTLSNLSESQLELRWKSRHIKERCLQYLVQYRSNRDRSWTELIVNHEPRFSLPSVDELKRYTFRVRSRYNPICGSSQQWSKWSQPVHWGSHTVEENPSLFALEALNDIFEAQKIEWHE

B1: mouse interleukin-2 (mIL-2) (ligand, UniProt P04351 21-169, looked up)
chain: APTSSSTSSSTAEAQQQQQQQQQQQQHLEQLLMDLQELLSRMENYRNLKLPRMLTFKFYLPKQATELKDLQCLEDELGPLRHVLDLTQSKSFQLEDAENFISNIRVTVVKLKGSDNTFECQFDDESATVVDFLRRWIAFCQSIISTSPQ
notes: range 1-149; Baculovirus expression for SPR; also called MmIL-2; mouse IL-2
B2: G2_neo2_40_1F_dsn36 (designed binder)
chain: PKKKIQLLAEHALLDALMILNIVKTNSQNAEEKLEDYASNVEVILEEIARLMESGDQKDEAEKAKRMKEWMKRIKTTASEDEQEEMANRIITLLQSWIFS
notes: E. coli, N-terminal 6xHis tag and thrombin site
B3: G1_neo2_40_1F (designed binder)
chain: STKKTQLLAEHALLDALMMLNLLPEPNEKLNRIITTMQSWIFTGKIDGDGAQELAKEVEELEQEHEKRGIDVEDYASNLKVILLELA
notes: also called G1_ne02_40_1F

How the values were obtained:
[1] = molecular target: T1, human IL-2 receptor βγc heterodimer …; experiment: SPR, equilibrium titration; IL-2Rγ on streptavidin chip, saturating IL-2Rβ in solution
[2] = molecular target: T2, mouse IL-2 receptor βγc heterodimer …; experiment: as above

| Binder | Kd [1] [nM] | Kd [2] [nM] |
| --- | --- | --- |
| B1 | 8030 | 126 |
| B2 | 114 | 568 |
| B3 | 2.3 | 7.9 |
